Experimental data as given in the DeepSol protein solubility set.

Experiment: soluble on expression in E. coli; label from the status in PepcDB or PDB records

Sequence	soluble on expression in E. coli
MGSDKIHHHHHHMASESWMKTQAPDPTNLPAEINPEVPSIARVYDYFLGGKDNFPADRAAAAAVEKVFPQGKQLGRESRMLLRRATRELVRAGVRQFLDIGSGLPTAGNVHEIAHEIDPEVRVVYIDNDPVVLAHGRALLADEVTTTVVQADLRHPDGIFDNPEVRALLDFDQPVAVFLASILHHFDDSDDPWALSRKIRDRISSGSYMLITHFYDSGDPVCREVEQALLEGGLGSGWFRTKEQIERFFEGMDVLEPGVVAANEWRPDAETPTDSTTHHLLAGGLARKP	not soluble
MASNPNDLPDFPEHEYAATQQVGEGVINGDLYLTSASGAIQKGTNTKVTLEPATSYMKAYYAKFGNLDAAKRDPDVQPPVLDPRRATYVREATTDQNGRFDFDHIPNGTYYISSELTWSAQSDGKTITEGGTVTKLVTVSGSQPQKVLLTR	soluble
GMENELEDKILAILEQHQVGVLTSVQGDFPHARYMTFLHDGLTLYTPSGKELPKTEEVRRNPHVCVLIGYDSPGSAFLEINGLASLEEDESIKERIWENISKDWFQGEDSPSFVVIKIVPEQIRILNS	soluble
MSLKLWKNATFYQMTAEGDQVSAVLTENGQICAVGEAMDLEKQYVANITETIDLEGKVVFPGFVDAHIHLLWYGQALERLNLNQTTTKKEALALIAERTKQIASDEWLFVEGYDENKWSDEQTLISLADLDEVSQTNPILVRRIDYHSVSINSALQEKIADFSETGFDGGGEIVRDKTGEFIGVLRDNATTMAIDSFPAATPSELSAWLEIAITDLWSKGITGAHSEDLHYFTGFASTLAAFRNTIGSNKMPFRAHLLVHHAELAAFSASNESFVSGDAFLELGAMKIFYDGTVGSRTALMSAGYADNPSEKGLQIHSDQAFEDLVKAARKAGLPVAIHILGDQAFANVIRTLRANPPKEGQYDRLIHTPWLTEALIEEATGLPVLFDIQPQFMASDLPWALEVLGDNHPPLAFAWKTLLQAGFPLAGGSDAPIEVPNPFWGIHAAVTRTANADLDGVGYWPEQALTVFEAIQLYTKGAAFASYKTTTRGQIAPGFVADFTILAEDPFQMKQAELRQVSVVMTVVNEQIVYQKKEGHHHHHH	soluble
MGSDKIHHHHHHMIRGLRQIEPYVAGVQPAERKMIKLNTNENAYGASPKVREALANFDVDNLRKYSTLEQADLRAALANNLKVKPEQLMIANGSDDVLSIAFLAFFNNDEPVLFPDLTYGFYKVWADLYRVNYHEIPLAEDFTINTEDYLADNGGIILTNPNAPTGIYKPLNEIEKLLKANQDTVVIIDEAYISFGGQSALSLLNKYNNLVITRTFSKDAALAGLRVGYAIANEPLIAVMNAVKHSINPYSVDLLAERLATAAVEDWSYYQENAKKIQKTRAWFSEQLVKQGFDVLPSQANFVLTKPHDLATAKLFEELEARKIYVRYFPKVERIKDYLRISMGTQEEMEEVVKAIEEIRG	not soluble
MAKTLKTLYQCTECGGTSPKWQGKCPHCGEWNTLQESLAAPEPKNARFQSWAADTSTVQSLSAVTATEVPRNPTGMGELDRVLGGGLVDGAVILLGGDPGIGKSTLLLQTIAKMAQSRKVLYVSGEESAQQVALRAQRLELPTDGVNLLAEIRMEAIQAALKQHQPEVVVIDSIQTMYSDQITSAPGSVSQVRECAAQLTRMAKQMGIAMILVGHVTKDGAIAGPRVLEHMVDTVLYFEGDQHSNYRMIRAIKNRFGAANELGVFAMTENGLKGVSNPSAIFLASYRDDTPGSCVLVTQEGSRPLLVEIQALVDDAHGFTPKRLTVGLEQNRLAMLLAVLNRHGGIACFDQDVFLNAVGGV	not soluble
MGSDKIHHHHHHMPYTTYRQQAVDEQTLAQTELNQYIADQAQVIAPEEYTSVEINFYYHEIYISSQLIAQIAYDHNEFVTQRWLVLVNDKEEFRANTWAKCYRYICTHHKDGSLPVQERETPAATTGNEIMVQIADECENLGLELLEDGIYRGDQKLGKAGQTNGNWWFIRTDDATQQQRFCNSASDAMWLVSRAELPEYTDTLNEYLQYRPLEQMPSVELKHLLDSAELTAA	not soluble
MKAIILGIQNILEVLLEDIGILKMESIFLHTNITNIPHSVLYVSLSYYIINPCTSASSNLDDSFS	soluble
MYIRINNGVTECNIRLVGTAHVSDDSITEVKNAIVETDPELVAIELDKDRFVAMFQNKKNDVDLKSVIKQGKVGIYIVHSILANFQKNIGEQFGIKPGSEMKKATDLAIQYQKPISLIDRPINITLSRTVNKMTFKEKFDFVIGLLTEQNVELDEKAINEMVSNADDLILLLKDISPSIYETLVNERDKYMAKNLFEASKGKENIVAVVGAGHVPGIKNYLKKMESGEDIDLKSLM	not soluble
MGSDKIHHHHHHMSETNAQKVQEVIIAGMSKTVANYDYAMSELEALVAANNMHAALRIDQGLEKPNPATFFGKGKVVEIKEVAAANDLHIMVINADLTPSQVRNLEEQTDIQIIDRTGLILEIFGNRARSKEAKLQVKIAQLQYQLPRLRTSISNRLDQQAGAAAGGGGGFTNRGAGETQLELNRRTIQDRISHAKHELKELNKDEVVRRSQRDKAGLPNVALVGYTNAGKSTTMNGLVKLFGKGEDKQVFEKDMLFATLDTSIRQLTFPDNKQLLLSDTVGFVSDLPHNLINAFRSTLAEAANADLLIQVIDYADPHYKEMMATTEKTLKEIGVHDVPMIYAFNKADLTEADYPNQQDDQLIYTARDEASLQALTSMIKAKVFKNYVTTTLLIPFNDGEVVAYLNDHANILKTDYLADGTQLTVELNTVDAQRYEKYVVTPA	not soluble
MGSDKIHHHHHHMKLISVKRIWEQGAHNAFTDLIRFQGALFCVFREGTAHVSPDGALRILRSADLGDTWQSVALIRSDEADLRDGKLIEYQGELLLLGGGTLHDKSGLQSHLWRSLDGLVWSDALKIGDKGYWLWRLTEYQNALYGVGYRAGPDGDTRLYKSDDGVQFETWLMVFNNQGYVNESAIVFDQDNGFCLLRRDPVWGPEYVGLLGCSQAPFIDWQWQELDKRIGGPVMLMYQSRLLAVVRLYDEQVRTALVEIHPDTGVVQELLTLPSKGDTSYAGVVIDGNELWVSYYSSHEIANAQLDAQNVQNESSISTQAKTMIYFAKIQLVGEF	not soluble
MGSSHHHHHHGGTGENLYFQGGSGHPASLAAHAFGDASTRSPTHTLPSRCHLFLSLSLSTAAVRRSRASPPLAPTRRTHECLSASHTRTCRQSASFSPLEHPFSFSVAILSSTMPREIKTLKEFLAICSRKDARCVKVKHNPSATKFKVRCSRYLYTLVVNDKKKADKIERSIHPSVKKIAVTARSHAKTNAGSKQ	not soluble
GSHMERPESELIRQSWRVVSRSPLEHGTVLFARLFALEPSLLPLFQYNGRQFSSPEDSLSSPEFLDHIRKVMLVIDAAVTNVEDLSSLEEYLTSLGRKHRAVGVRLSSFSTVGESLLYMLEKSLGPDFTPATRTAWSRLYGAVVQAMSRGWDGE	soluble
MSAIDCIITAAGLSSRMGQWKMMLPWEQGTILDTSIKNALQFCSRIILVTGYRGNELHERYANQSNITIIHNPDYAQGLLTSVKAAVPAVQTEHCFLTHGDMPTLTIDIFRKIWSLRNDGAILPLHNGIPGHPILVSKPCLMQAIQRPNVTNMRQALLMGDHYSVEIENAEIILDIDTPDDFITAKERYTEILEHHHHHH	soluble
MITVVGGTFSKLHKGHKALLNTAIDTGNEVVIGLTSDEYVKKNKVYPAIPYSVRYRTLYNYMIKRTNKFRIRQIDDRNGNAPYEKDYEVIVVSPETYPRSLKINEIRISNGLPPLKIIRVPYVLAQDLFPISSTRIINGEID	not soluble
SERTQSSNMETRLDAMKELAKLSADVTFATEFINMDGIIVLTRLVESGTKLLSHYSEMLAFTLTAFLELMDHGIVSWDMVSITFIKQIAGYVSQPMVDVSILQRSLAILESMVLNSQSLYQKIAEEITVGQLISHLQVSNQEIQTYAIALINALFLKAPEDKRQDMANAFAQKHLRSIILNHVIRGNRPIKTEMAHQLYVLQVLTFNLLEERMMTKMDPNDQAQRDIIFELRRIAFDAESDPSNAPGSGTEKRKAMYTKDYKMLGFTNHINPAMDFTQTPPGMLALDNMLYLAKVHQDTYIRIVLENSSREDKHECPFGRSAIELTKMLCEILQVGELPNEGRNDYHPMFFTHDRAFEELFGICIQLLNKTWKEMRATAEDFNKVMQVVREQITRALPSKPNSLDQFKSKLRSLSYSEILRLRQSERMSQDDFQSPPIVELREKIQPEILELIKQQRLNRLCEGSSFRKIGNRRRQERFWYCRLALNHKVLHYGDLDDNPQGEVTFESLQEKIPVADIKAIVTGKDCPHMKEKSALKQNKEVLELAFSILYDPDETLNFIAPNKYEYCIWIDGLSALLGKDMSSELTKSDLDTLLSMEMKLRLLDLENIQIPEAPPPIPKEPSSYDFVYHYG	not soluble
